One test deals with S288C. Nature of the test: Toxic peptide disk assay, wild type. The format is cell-based, Saccharomyces cerevisiae. Particulars: for diameter of zone of inhibition: disk with 0.38 μmoles, lawn of 5×10^6 cells, 30° C., 1 to 2 days, mean ± standard error. The protocol:
(§1) Since ptr mutants are deficient in peptide transport, they are unable to take up toxic peptides. This inability renders such mutants resistant to the toxic effect of the peptides. In order to determine whether the polynucleotides of the present invention could restore toxic peptide sensitivity to ptr2 mutants, the sensitivity of plasmid-transformed cells was determined. Sensitivity to toxic amino acids and peptides was measured as described by Island, M. D. et al. (J. Bacteriol. 169:2132-2136 (1987)). Briefly, a filter disk containing 0.38 μmoles of the toxic compound was placed on a lawn containing 5×10^6 cells and the plate incubated at 30° C. for 1 to 2 days. Resulting halos were measured across their diameter. The toxic dipeptides Leu-Eth, Ala-Eth, Leu-F-Phe and Oxalysine were synthesized by standard solution phase techniques (Naider, F. et al., J. Biol. Chem. 249:9-20 (1974). The results of this experiment are shown in Table 2 (values are the mean of the diameters of the observed zone of inhibition in millimeters±standard error of the mean of at least two independent experiments).

In another test the test system is PB1X-9B (pJP9). Nature of the test: Toxic peptide disk assay, mutant with yeast peptide transport gene. The format is cell-based, Saccharomyces cerevisiae. As to conditions: for diameter of zone of inhibition: disk with 0.38 μmoles, lawn of 5×10^6 cells, 30° C., 1 to 2 days, mean ± standard error. Here is the method: as §1
For the next test, the system named is PB1X-9B (pPTF4). Nature of the test: Toxic peptide disk assay, mutant with plant gene ATPTR2A. In kind it is cell-based, Saccharomyces cerevisiae. Particulars: for diameter of zone of inhibition: disk with 0.38 μmoles, lawn of 5×10^6 cells, 30° C., 1 to 2 days, mean ± standard error. The protocol:
as §1

The subject of another test is A. thaliana seedlings. Nature of the test: Root elongation of seedlings exposed to toxic peptides. The format is in vivo, Arabidopsis thaliana. Here is the method: (§2) Thus, A. thaliana seeds and seedlings were exposed to Ethionine, Ala-Eth, Leu-Eth, Leu-fluorophenylalanine or oxalysine containing peptides, and the minimum inhibitory concentrations (MIC) were determined for each of the toxic compounds.
Approximately 15 A. thaliana seeds were placed in a row at one end of 10 cm plate containing 20 ml of Arabidopsis growth media (Kranz and Kirchheim 1987). The seeds were incubated 3-5 days in the light with the plate set in an upright position. When the roots were approximately 1-2 cm long, sterile paper filter disks were placed immediately in front of the root tips on the right and left side of the plate 2 cm from the edge of the plate. A line was drawn across the plate using the top of the disks as a guide marking zero growth. 5 μl of toxic amino acid analog, toxic peptide, or toxic peptide plus competitor was added to one disk while H2 O was place on the other disk. The plates were incubated for an additional 3-5 days. The average length of the roots was measured from the line and the results expressed as a percentage of control root growth.

The test system of a further test is A. thaliana seeds. Description: Seed germination with toxic peptides (minimum inhibitory concentration). In kind it is in vivo, Arabidopsis thaliana. Particulars: A. thaliana seeds. The protocol:
as §2
To measure the minimum inhibitory concentration of the toxic peptides, 10 to 15 A. thaliara seeds were place on solid Arabidopsis growth media with decreasing concentrations of toxic peptide. The seeds were incubated for 4 days in the dark and then scored for germination.

A further test has as its system PB1X-9B(pJP2). Nature of the test: Dipeptide utilization, L-alanyl-L-ethionine sensitivity and dileucine transport of secondary transformants. The format is cell-based, Saccharomyces cerevisiae. The protocol:
Plasmid pJP2 was then reintroduced into PB1X-9B. The resulting secondary yeast transformants were tested for the ability to use a variety of dipeptides as sources of amino acids and for sensitivity to the toxic dipeptide L-alanyl-L-ethionine. Thus, strains were grown in YEPG broth at 30° C. to a titer of 10^8 cells per ml. The cells were harvested by centrifugation, washed twice with sterile water and resuspended at 1.0×10^7 cells per ml. A 5-μl aliquot was applied to solid MM containing dipeptides and amino acids as required. Four types of solid media were routinely used in assessing dipeptide utilization: MM+L-leucyl-L-leucine-L-lysine+L-histidine, MM-L-lysI-L-lysine-L-leucine-L-histidine (SEQ ID NO:12), MM-L-lysl-L-leucine-L-histidine, and MM-L-histydyl-L-leucine-L-lysine. All dipeptides were present at a concentration of 80 μM, while amino acids and nucleotide bases were added as required at standard concentrations (Sherman, F. et al., In: Methods in Yeast Genetics, Cold Spring Harbor Laboratory, Clod Spring Harbor, N.Y. (1986)). The plates were incubated at 30° C. for 48 hours and then scored for growth.

The next test deals with ATPTR2Ap. Nature of the test: Uptake of L-leucyl-L-[3H]leucine and competition, PB1X-9B[pPTF4]. As to conditions: PB1X-9B transformed with pPTF4, compared with wild type, trifluoroacetic acid (TFA). The protocol:
The kinetics of ATPTR2A-mediated transport of peptides in yeast was evaluated by transforming pPTF4 into the S. cerevisiae peptide transport mutant, PB1X-9B and measuring the uptake of tritiated Leu-Leu dipeptide.
L-leucyl-L [^3 H]leucine trifluoroacetic acid (TFA) was synthesized by standard solution phase techniques (Naider, F. et al., J. Biol. Chem. 249:9-20 (1974)). Uptake of L-leucyl-L-[H]leucine was performed as by Island, M. D. et al (J. Bacteriol. 169:2132-2136 (1987)), with the following modifications. Cells were grown to late log phase (26×10^7 cells/ml) overnight in SC with 2% glucose, 1 mg/ml allantoin plus amino acids to supplement auxotrophic markers. To induce peptide transport. 5-15 ml from this culture was added to 100 ml fresh medium such that the density was 3.0×10^6 cells/ml. This culture was allowed to grow (approx. 2 hrs.) to a density of 6.0×10^6 cells/ml and then harvested by centrifugation. The pelleted cells were washed twice with 10 ml cold dH2 O and suspended in cold 2% glucose to a final concentration of 2×10^8 cells/ml and incubated at 30° C. for 15 min. 500 μl of cells were then added to an equal volume of reaction mixture (30° C.) and incubated at 30°-C. At 20, 40, 60, 90, and 120 sec. intervals, 190 μl portions were removed, filtered over filters (pore size, 0.45 μm; GN-6; Gelman Sciences, Inc., Ann Arbor, Mich.) and washed 2 times with 5 ml cold, sterile dH2 O and once with 5 ml dH2 O at room temperatures. Filters were placed in scintillation vials with 5 ml of Budget-Solve scintillation cocktail (Research Products International Corp., Mount Prospect, Ill.) and counted (liquid scintillation counter; LS-7000; Beckman Instruments, Inc., Fullerton, Calif.). The final concentration of the components in the uptake assay was 1% glucose, 40 mM sodium citrate-potassium phosphate buffer (pH 5.5), and 1.5×105 M L-leucyl-L-[^3 H]leucine (specific activity, 10 mCi/mmole). Uptake is expressed as nanomoles per mg dry weight.

For test [1], the system named is S. cerevisiae strains tested. Description: Toxic peptide disk assay, statements covering several strains. The format is cell-based, Saccharomyces cerevisiae. Particulars: wild type (S288C) and transformants. The protocol: as §1
Test [2] addresses L-alanyl-L-ethionine.
In test [3] the target is Leu-Eth.
Test [4] concerns the target L-alanyl-L-ethionine. The source holds these as a separate data set.
For test [5], the target named is Leu-Eth. This is another data set of the same source.
The target of the next test is T1, Lys-Leu-Leu-Ala-Eth.
T1 peptide: KLLA-Eth
Nature of the test: cell-based or functional assay.

The target of a further test is T2, Lys-Leu-Leu-Leu-Eth.
T2 peptide: KLLL-Eth
Description: cell-based or functional assay.

A further test addresses T3, Ala-Ala.
T3 peptide: AA
Nature of the test: cell-based or functional assay.

A further test concerns the target T4, Ala-Ala-Ala.
T4 peptide: AAA
Nature of the test: cell-based or functional assay.

For another test, the target named is T5, Met-Met.
T5 peptide: MM
Description: cell-based or functional assay.

Read-outs that look alike come from different tables or passages of the source. Where a SMILES comes first, the peptide text is derived from it. Where no end group is shown, it is not given here. [ ]: non-standard residue; d: D form. hCys = N[C@@H](CCS)C(=O)O; Eth = ethionine

`CCSCC[C@H](NC(=O)[C@H](C)N)C(=O)O` [Ala-Eth, L-alanyl-L-ethionine] (H-Ala-[hCys](Et)-OH): the entries for the “diameter of zone of inhibition” value with S288C, with PB1X-9B (pJP9) and in the test on PB1X-9B (pPTF4) were 33.5 ± 2.5 millimeters, 42.5 ± 2.5 millimeters and 35.0 ± 1.0 millimeters, respectively. For the same molecule, in the test on PB1X-9B (pPTF4), the “sensitivity or resistance to toxic compound” value is given as “restores sensitivity”. Moreover, the “amount that inhibits root elongation of seedlings” value in the test on A. thaliana seedlings is 0.038 µmol. The “amount that inhibits germination of seeds” value with A. thaliana seeds was 0.038 µmol. Also, in the test with PB1X-9B(pJP2), the “sensitivity to toxic dipeptide” value is reported as “sensitive”.

For the molecule “L-leucyl-L [^3 H]leucine trifluoroacetic acid (TFA) [[H^3]-dileucine]”, the entries for the “uptake of radiolabeled dileucine” value in the test with ATPTR2Ap (listed as radiolabeled dileucine) and in the test with ATPTR2Ap were “comparable to that of wild type” and “wild-type levels”, respectively. Further, in the test with PB1X-9B(pJP2) (compared with wild type), the “transport of radiolabeled dileucine” value is on record as “levels approximating those of the wild type”.

Regarding Leu-fluorophenylalanine [Leu-F-Phe], the appearance of halo entry in the test on S288C and in the test with PB1X-9B (pJP9) was “hazy background within the halo” each time. Further, the “diameter of zone of inhibition” value in the test with S288C was found to be 28.0 ± 4.0 millimeters; in the test with PB1X-9B (pJP9), 20.5 ± 3.0 millimeters; in the test with PB1X-9B (pPTF4), 37.0 ± 1.0 millimeters. Besides, the “sensitivity or resistance to toxic compound” value in the test on PB1X-9B (pPTF4) is “restores sensitivity”; with PB1X-9B (pPTF4) (listed as leucine-fluorophenylaianine), “greater and more complete sensitivity”. Also, the “sensitivity to toxic compound” value in [1] is reported as “less sensitive”. Moreover, the “amount that inhibits root elongation of seedlings” value in the test with A. thaliana seedlings is on record as “not inhibited”. Moreover, the “amount that inhibits germination of seeds” value in the test with A. thaliana seeds is listed as “not inhibited”.

B1: ATPTR2Ap protein (other)
chain: MSSIEEQITKSDSDFIISEDQSYLSKEKKADGSATINQADEQSSTDELQKSMSTGVLVNGDLYPSPTEEELATLPSVCGTIPWKAFIIIIVELCERFAYYGLTVPFQNYMQFGPKDATPGALNLGETGADGLSNFFTFWCYVTPVGAALIADQFLGRYNTIVCSAVIYFIGILILTCTAIPSVIDAGKSMGGFVVSLIIIGLGTGGIKSNVSPLMAEQLPKIPPYVKTKKNGSKVIVDPVVTTSRAYMIFYWTINVGSLSVLATTSLESTKGFVYAYLLPLCVFVIPLIILAVSKTAFTSTLLPPVPSLFVLVKCSSLLLKTNLISKKLNHLALLLLERYVKDQWDDLFIDELKRALRACKTFLFYPIYWVCYGQMTNNLISQAGQMQTGNVSNDLFQAFDSIALIIFIPICDNIIYPLLRKYNIPFKPILRITLGFMFATASMIYAAVLQAKIYQRGPCYANFTDTCVSNDISVWIQIPAYVLIAFSEIFASITGLEFAFTKAPPSMKSIITALFLFTNAFGAILSICISSTAVNPKLTWMYTGIAVTAFIAGIMFWVCFHHYDAMEDEQNQLEFKRNDALTKKDVEKEVHDSYSMADESQYNLEKANC
As to B1, the diameter of the zone of inhibition, disk assay with 0.38 µmoles with L-alanyl-L-ethionine [2] came out at 35 mm; with Leu-Eth [3], 45 mm; in the test with Leu-F-Phe, 37 mm; in the test with Lys-Ala-Eth, 37.5 mm; with Lys-Leu-Ala-Eth, 0 mm; with Lys-Leu-Eth it was 35 mm. Also, the diameter of the zone of inhibition, disk assay with 0.38 µmoles in the test with Lys-Leu-Leu-Eth, in the test with Lys-Leu-Leu-Ala-Eth and with Lys-Leu-Leu-Leu-Eth was 0 mm each time. Besides, the inhibition of germination of A. thaliana seeds and of root elongation of seedlings in the test with L-alanyl-L-ethionine [4] and in the test with Leu-Eth [5] was 0.038 µmol throughout. For the same molecule, the “reversal by a competitor peptide of the inhibition of A. thaliana root growth by Ala-Eth or Leu-Eth” value is 0 % of control root growth with Ala-Ala, 0 % of control root growth in the test with Ala-Ala-Ala and 40 % of control root growth in the test with Met-Met.

B2: yeast peptide transporter SACPTR2p (other)
chain: MLNHPSQGSDDAQDEKQGDFPVIEEEKTQAVTLKDSYVSDDVANSTERYNLSPSPEDEDFEGPTEEEMQTLRHVGGKIPMRCWLIAIVELSERFSYYGLSAPFQNYMEYGPNDSPKGVLSLNSQGATGLSYFFQFWCYVTPVFGGYVADTFWGKYNTICCGTAIYIAGIFILFITSIPSVGNRDSAIGGFIAAIILIGIATGMIKANLSVLIADQLPKRKPSIKVLKSGERVIVDSNITLQNVFMFFYFMINVGSLSLMATTELEYHKGFWAAYLLPFCFFWIAVVTLIFGKKQYIQRPIGDKVIAKSFKVCWILTKNKFDFNAAKPSVHPEKNYPWNDKFVDEIKRALAACKVFIFYPIYWTQYGTMISSFITQASMMELHGIPNDFLQAFDSIALIIFIPIFEKFVYPFIRRYTPLKPITKIFFGFMFGSFAMTWAAVLQSFVYKAGPWYNEPLGHNTPNHVHVCWQIPAYVLISFSEIFASITGLEYAYSKAPASMKSFIMSIFLLTNAFGSAIGCALSPVTVDPKFTWLFTGLAVACFISGCLFWLCFRKYNDTEEEMNAMDYEEEDEFDLNPISAPKANDIEILEPMESLRSTTKY
On to B2, for which the diameter of the zone of inhibition, disk assay with 0.38 µmoles was found to be 42.5 mm in the test with L-alanyl-L-ethionine [2]; 47 mm in the test with Leu-Eth [3]; 20.5 mm with Leu-F-Phe; 36 mm with Lys-Ala-Eth; 0 mm with Lys-Leu-Ala-Eth; 36 mm in the test with Lys-Leu-Eth. Moreover, the diameter of the zone of inhibition, disk assay with 0.38 µmoles in the test with Lys-Leu-Leu-Eth, with Lys-Leu-Leu-Ala-Eth and in the test with Lys-Leu-Leu-Leu-Eth was 0 mm throughout.

The values are drawn from patent US6080542A, “Plant peptide transport gene” (priority 1997, dated 2000).
